Test results from US20090304580A1 (published 2009).
Positions of bridges follow the written chain, without caps; N, C: chain ends. No end group written: not given here.

Assays:
[1] = target: T1, PAM4 antigen (human pancreatic cancer mucin, CaPan1) (human); assay: ELISA on target mucin antigen (FIG. 9)
T1 construct: Mucin preparation or cell extract from human pancreatic cancer (CaPan1 xenografts); coated on plates or captured by PAM4 in the immunoassays; also called CaPan1 Ag; CaPan1 antigens

[2] = target: T2, cyclic phage-displayed peptide ACPEWWGTTC (disulfide 2-10); assay: screen of phage-displayed peptides (cyclic library) after panning against hPAM4
T2 construct: also called cyclic peptide
T2 peptide: ACPEWWGTTC

B1: humanized PAM4 antibody (hPAM4 IgG) (antibody, V domains shown)
VH: QVQLQQSGAEVKKPGASVKVSCEASGYTFPSYVLHWVKQAPGQGLEWIGYINPYNDGTQYNEKFKGKATLTRDTSINTAYMELSRLRSDDTAVYYCARGFGGSYGFAYWGQGTLVTVSS
VL: DIQLTQSPSSLSASVGDRVTMTCSASSSVSSSYLYWYQQKPGKAPKLWIYSTSNLASGVPARFSGSGSGTDFTLTISSLQPEDSASYFCHQWNRYPYTFGGGTRLEIKR
EC50 [1]: 1.31 nM | binding result [2]: binds
